The series deals with MS2 coat protein. The series is described as follows: apparent KD of MS2 coat protein; designed switch direction (-1 OFF switch, 1 ON switch): -1; higher = weaker reporter binding. In outline:
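Each step of the titration lasted 0.8–1.5 h at the lowest concentration and 10–20 min at the highest. The protein, SNAP-549-labelled MS2 coat protein, went from 0.7 or 1.5 nM doubling to 3 µM over RNA switches transcribed on Illumina chips by stalled E. coli RNA polymerase. Normalised cluster fluorescence was curve-fitted, and the per-design median over clusters is given as apparent KD.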

[1] abbreviates: Eterna round: R95, input ligand: microRNA oligo, concentration not stated.
Setting [2] is: input ligand: microRNA oligo, concentration not stated.
The mark [3] stands for this setting: Eterna round: R95, input ligand: FMN 200 uM.
Setting [4] is: Eterna round: R95, input ligand: none.

As for “GUCAUCACACAUGGGAUCAACAUGAGGAUCACCCAUGUUGCCAAGUUGUUUGCACGUCUUAUCAUACGUUUUUCGAU [Mod-Jxi] (Eterna round: R97, puzzle: Sensor, turn-off variant 1)”, the “apparent KD of MS2 coat protein” value was found to be 22.2 nM (input ligand: FMN 200 uM) and 22.7 nM (input ligand: none).
For “UAACCUCGCGUCAGGAUAUGCGAGGACUGUGACGUGCAGAAGGGACAUGAGGAUCACCCAUGUGAAAGAAUUAA [Acecequ] (puzzle: Brourd's mod of Exclusion 4)”, the “apparent KD of MS2 coat protein” value under setting [1] worked out at 20.3 nM.
Regarding “AGAGUACUGCGAGGAUAUACAUGAGGAUCACCCAUGUGGUGGUGUGAGGCUUUGCCUCACACCAUGUAGAAGGCGCAGUACUCA [Mat - Exclusion NG 2 - Mod of JL - D19] (Eterna round: R96, puzzle: Exclusion NG 2)”, the “apparent KD of MS2 coat protein” value was found to be 257 nM (input ligand: FMN 200 uM), 26.8 nM under setting [2] and 35.3 nM (input ligand: none).
In the case of “CCUGCACAUGAGGAUCACCCAUGUCAGGAUAUCUCGCCGUCGGCUUGCCGACGGUAUUAGAGAAGGGACAAGGG [JL Tixe mod 2] (puzzle: Exclusion 1)”, the “apparent KD of MS2 coat protein” value under setting [1] stood at 21.9 nM.
In the case of “CCCUCAAGCGAGGAUAUAAAUGCGCAUUCGCGGUUAGAAGGCGCUACAUGAGGAUCACCCAUGUAAUUGUAUGG [jl-ex6-4.53 ViennaUCT mod] (Eterna round: R97, puzzle: Exclusion 6)”, the “apparent KD of MS2 coat protein” value is, setting by setting: (input ligand: FMN 200 uM) 98.4 nM; (input ligand: none) 73.4 nM.
On to “GCGAAAGCAAACAAGUGAAACAUGAGGAUCACCCAUGUCCUCAUUUGCUCGUCUUAUAAGCUAUGCGAAAGCAUAGC [Sensor 3, v1 - 6] (puzzle: Sensor v3, turn-off variant 1)”, for which the “apparent KD of MS2 coat protein” value is 38 nM under setting [3], 269 nM under setting [1] and 41.6 nM under setting [4].
With “GCCAUGGGAGGAUAUACGUCAUAGGUUACCUCACGCUGGCGACAUGAGGAUCACCCAUGUAGAAGGCUCAGAUG [Eternabot (L2) Solution 12] (Eterna round: R97, puzzle: Exclusion 2)”, the “apparent KD of MS2 coat protein” value runs as follows: (input ligand: FMN 200 uM) 101 nM; (input ligand: none) 113 nM.
Regarding “GAGAAACAUGAGGAUCACCCAUGUGAGGAUAUGAGCACGCCGGUGACGGUGAUAAGAAUCAGAAGGCACAUUAA [Mat - Exclusion 1 - JL Mod - D34] (Eterna round: R97, puzzle: Exclusion 1)”, the “apparent KD of MS2 coat protein” value runs as follows: (input ligand: FMN 200 uM) 95.7 nM; (input ligand: none) 38.8 nM.
Regarding “CUUGUAAAUGUGAGGAUAUACUGUUAGUAAAGUUAGUAGAAGGUACAUGAGGAUCACCCAUGUUAAUUACUCUA [JR_BME4_Sub047] (puzzle: Brourd's mod of Exclusion 4)”, the “apparent KD of MS2 coat protein” value is, setting by setting: under setting [3], 15.9 nM; under setting [1], 13.2 nM; under setting [4], 14.5 nM.
As for “AGAUGCUCAAGUCGACAUGAGGAUCACCCAUGUACAGUUAAUGAGGAUAUCUGAGAUAAAUAAUAGGAGAAGGCGUGAACAUGA [Ex NG3 #9] (Eterna round: R96, puzzle: Exclusion NG 3)”, the “apparent KD of MS2 coat protein” value (input ligand: FMN 200 uM) worked out at 25.9 nM, the “apparent KD of MS2 coat protein” value under setting [2] worked out at 20.3 nM and the “apparent KD of MS2 coat protein” value (input ligand: none) was 34.9 nM.
As for “GCACUGCGAGGAUAUACAUGAGGAUCACCCAUGUGUCGGCAGACAUGGUUAAUCUAAGGUAGAAGGCGCGUAAA [JR_Ex3_Sub004] (Eterna round: R97, puzzle: Exclusion 3)”, the “apparent KD of MS2 coat protein” value is, setting by setting: (input ligand: FMN 200 uM) 16.3 nM; (input ligand: none) 993 nM.
“GCUCGUGGGCAAGGAUAUCCUACGCUGUUCUGGUUCGUGUCUGUUACAUGAGGAUCACCCAUGUGGGAGAAGGUGCACCAGGGU [Design 50] (Eterna round: R96, puzzle: Exclusion NG 2)”: the “apparent KD of MS2 coat protein” value reads like this: (input ligand: FMN 200 uM) 22.8 nM; under setting [2], 12.3 nM; (input ligand: none) 18.3 nM.
“AAUAAUAAUGUCAGGAUAUCUAGAGCUGCGGCUCUAGAGAAGGGACAUGAGGAUCACCCAUGUCACUCAAUAAU [BmEx4/3-C5] (Eterna round: R97, puzzle: Brourd's mod of Exclusion 4)”: the “apparent KD of MS2 coat protein” value is 22 nM (input ligand: FMN 200 uM) and 15.1 nM (input ligand: none).
Regarding “GAUUGACAUGAGGAUCACCCAUGUGAGGAUAUCGGCCGGACCUUGUUAGCUUCCAUCGUGAGAAGGCACAUAGG [Exclusion 1 V35] (puzzle: Exclusion 1)”, the “apparent KD of MS2 coat protein” value under setting [1] came out at 26.9 nM.
Regarding “GUACUGACAGGAUAUACAUGAGGAUCACCCAUGUGCCUUAGCGCUACAAAAGUAGCGCGUAGAAGGGUCUGUAC [Omei Ex3 Model Bachelor's Dilema v16] (Eterna round: R97, puzzle: Exclusion 3)”, the “apparent KD of MS2 coat protein” value runs as follows: (input ligand: FMN 200 uM) 22.4 nM; (input ligand: none) 14.7 nM.
As to “UCAUGGGAGCGAGGAUAUAGCCCAUGUGAAGAACUAGAAGGCGCAGACAUGAGGAUCACCCAUGUGUUCAUGAGGAGGUGGACA (Eterna round: R96, puzzle: Exclusion NG 1)”, the “apparent KD of MS2 coat protein” value by setting is: (input ligand: FMN 200 uM) 215 nM; under setting [2], 82.5 nM; (input ligand: none) 83.4 nM.
For the sequence “CUGCGUAGAGGAUAUACAUGAGGAUCACCCAUGUGCUAAAUGACUGCAUGCAAAUCGUGUAGAAGGUUGAAGGG [Eternabot (L2) Solution 85] (Eterna round: R97, puzzle: Exclusion 3)”, the “apparent KD of MS2 coat protein” value (input ligand: FMN 200 uM) amounted to 34.6 nM and the “apparent KD of MS2 coat protein” value (input ligand: none) came out at 40.4 nM.
The like results for “ACAAGAAUAGGAUAUACAACAUGCCAGCUUCUUUACAACGCACAUGAGGAUCACCCAUGUAGAAGGGUUCUCUG [Exclusion-2-#14] (Eterna round: R97, puzzle: Exclusion 2)” were, in that order, 360 nM and 329 nM.
On the same counts, the results for “GCAACGAGAGGAUAUGCUUAACGACCGGCGGAAGCGGAUCCACAUGAGGAUCACCCAUGUAGAAGGCUCGGACC [Eternabot (Original) Solution 24] (Eterna round: R97, puzzle: Exclusion 2)” are 35.8 nM and 27.4 nM.
The like results for “AAUUAGCAAGCGAGGUCCCACAUGAGGAUCACCCAUGUGCUCGUCUUAUAAGGUACUGUGACGAGAGUCACGGUACC [Mat - Sensor, turn-off var - Eli Mod - D35] (Eterna round: R97, puzzle: Sensor, turn-off variant 1)” were, in that order, 13.8 nM and 15.2 nM.
For “AAAUAAUGAGGAUAUACAGUGUAAAACAUGAGGAUCACCCAUGUUCUUCAAUUAGUAUUUGUAGAAGGCAUAGGUA [JR_Ex5_Sub094] (Eterna round: R97, puzzle: Exclusion 5)”, the “apparent KD of MS2 coat protein” value (input ligand: FMN 200 uM) was 38.5 nM and the “apparent KD of MS2 coat protein” value (input ligand: none) came to 60.7 nM.
Turning to “GCUUUUCUUUUCCUUUCUUACAUGAGGAUCACCCAUGUUUCUUGUCGUCCUCGCGUUGCUCGUCUGUCUGUCUGUUG [salish99_TOv1_r3_078] (puzzle: Sensor v3, turn-off variant 1)”, the “apparent KD of MS2 coat protein” value came to 97.8 nM under setting [3], 135 nM under setting [1] and 95.9 nM under setting [4].
As to “GUGAGGCCAGUGAGGAUAUGUGUACAACUACGUGCAUAGAAGGCACAUGAGGAUCACCCAUGUGAAUUCCCAGG [Eternabot (L1) Solution 65] (Eterna round: R97, puzzle: Brourd's mod of Exclusion 4)”, the “apparent KD of MS2 coat protein” value (input ligand: FMN 200 uM) turned out to be 14.7 nM and the “apparent KD of MS2 coat protein” value (input ligand: none) was found to be 14.4 nM.
Take “AUAUAUAGUGUGAGGAUAUGCUGGUCCUUGGAUCAGCAGAAGGCACAUGAGGAUCACCCAUGUAGUUUAUUUUG [Mat - Exclusion 4 - JL Mod - D6] (puzzle: Brourd's mod of Exclusion 4)”: the “apparent KD of MS2 coat protein” value under setting [1] turned out to be 17.3 nM.
For “AAAAAAUACAUGAGGAUCACCCAUGUAGAGUGGGAAGAGAGAUAGGAUAUGAUGUGAGAAUCAUAUCAGAAGGAUCGAGACUCA [AK ExNG3-2.2] (Eterna round: R96, puzzle: Exclusion NG 3)”, the “apparent KD of MS2 coat protein” value is, setting by setting: (input ligand: FMN 200 uM) 143 nM; under setting [2], 110 nM; (input ligand: none) 139 nM.
With “CCAGGCAGUGUGAGGAUAUCGUGGUCCUUGGAUCACGAGAAGGCACAUGAGGAUCACCCAUGUGAAUAGCUUGG [Mat - Exclusion 4 - JL Mod - D100] (puzzle: Brourd's mod of Exclusion 4)”, the “apparent KD of MS2 coat protein” value under setting [1] was determined as 21.9 nM.
The same measure, in the same setting: with “CUUAAGGCAGGAUAUGCUUUUUGUGACAUGAGGAUCACCCAUGUGAUGCAGUUUGGGUGUGCAGAAGGGCCUGAGU [JR_E5_Sub033] (puzzle: Exclusion 5)” the figure was 378 nM.
For “UAUUUAGCAAGCAGAUCCUACAUGAGGAUCACCCAUGUGCUCUGAAAUAACGCAGAAUUACUGCGAGCUCGUCUUAU [Winner reversed engineered 27] (Eterna round: R97, puzzle: Sensor, turn-off variant 1)”, the “apparent KD of MS2 coat protein” value came to 85.7 nM (input ligand: FMN 200 uM) and 120 nM (input ligand: none).
On the same counts, the results for “ACCCUAAUCGUGAGGAUAUACUGCGUCAAAGACGGGUAGAAGGUACAUGAGGAUCACCCAUGUUUGGCUACUAA [Eternabot (L2) Solution 48] (Eterna round: R97, puzzle: Brourd's mod of Exclusion 4)” are 28.3 nM and 27.7 nM.
With “AUAUAGCGAGGAUAUACAUGAGGAUCACCCAUGUGGUAGUAGAUACGGUAGGGCUAGUGUAGAAGGUGCUAUGA [EX3 #12] (Eterna round: R97, puzzle: Exclusion 3)”, the “apparent KD of MS2 coat protein” value by setting is: (input ligand: FMN 200 uM) 450 nM; (input ligand: none) 231 nM.
On to “AAACAAGCGUGAGGCUCGUCUUAAAAAGCCUCAUGAAAAACAUGAGGAUCACCCAUGUAAAAUGAUCGAAAGAUCAA [JL turnoff v2 29] (Eterna round: R96, puzzle: Sensor v2, turn-off variant 2)”, for which the “apparent KD of MS2 coat protein” value (input ligand: FMN 200 uM) was found to be 15.5 nM, the “apparent KD of MS2 coat protein” value under setting [2] was determined as 43.4 nM and the “apparent KD of MS2 coat protein” value (input ligand: none) stood at 17.6 nM.

The record behind these values is the supplement of paper PMC9170038.
